Source: article PMC11300593

Assays:
Experiment in all cases: dynamic light scattering; DLS at 20 mg/ml, 25 °C, with and without ammonium sulfate; dimer to monomers
[1] = biological target: SlOPR3 variant Y364P (tomato) (UniProt Q9FEW9)
[2] = biological target: 12-oxophytodienoate reductase 3 from tomato (SlOPR3), wild type (tomato) (UniProt Q9FEW9)
[3] = biological target: SlOPR3 variant R283E (tomato) (UniProt Q9FEW9)

Question: For “SlOPR3 variant Y364P (from UniProt Q9FEW9 1-396) (enzyme)”, which stoichiometry N [1] is on record?
Answer: 2

Question: “12-oxophytodienoate reductase 3 from tomato (SlOPR3), wild type (from UniProt Q9FEW9 1-396) (enzyme)” was tested. Which stoichiometry N [2] did it give?
Answer: 2

Question: “SlOPR3 variant R283E (from UniProt Q9FEW9 1-396) (enzyme)” was tested. Which stoichiometry N [3] did it give?
Answer: 2
